Laboratory results: patent publication US12673115B2, “Nucleic acid-peptide-nucleic acid conjugate molecules and methods of making the same” (ARIZONA BOARD OF REGENTS ON BEHALF OF ARIZONA STATE …, priority 2021, dated 2026)
Square brackets hold non-standard residues; d marks the D form. Primed or numbered codes have the meaning given here. Lys(N3) = [N-]=[N+]=NCCCC[C@H](N)C(=O)O; prA″ = not defined here

Columns and labels:
[1] = molecular target: T1, human matrix metalloproteinase 8 (MMP8) (Homo sapiens, UniProt P22894); experiment: Cleavage of peptide-linked DX tile dimer by MMP8, native PAGE; assay type: biochemical; conditions: 4 ng protein, incubation for 48 h at 37° C. in PBS
T1 construct: purchased PerkinElmer
T1 sequence (P22894 101-467): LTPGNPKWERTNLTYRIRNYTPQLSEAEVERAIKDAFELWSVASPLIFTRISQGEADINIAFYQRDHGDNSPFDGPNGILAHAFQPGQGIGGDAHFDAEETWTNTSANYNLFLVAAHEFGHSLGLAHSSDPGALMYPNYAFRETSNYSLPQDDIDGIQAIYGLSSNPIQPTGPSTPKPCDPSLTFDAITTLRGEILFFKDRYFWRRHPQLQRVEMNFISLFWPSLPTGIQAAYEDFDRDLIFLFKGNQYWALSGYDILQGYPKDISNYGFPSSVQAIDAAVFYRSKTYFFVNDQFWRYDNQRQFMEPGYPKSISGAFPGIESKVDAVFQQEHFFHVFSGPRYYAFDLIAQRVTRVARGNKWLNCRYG
From the text: As previously mentioned, one of our goals for these DPD triblock molecules is to use them as enzymatically-cleavable latches for a DNA nanostructure, e.g. to close the lid of a DNA origami box or “nano-bot”. To probe this effect, we used our DPD triblock to link together two model DNA nanostructures: double crossover (“DX” tiles), defined nanoscale objects 14 nm in length and 4 nm wide. DX tiles are composed of five unique strands—two edge strands, one central strand, and two crossover strands—and we designed two tiles that would have DNA1 and DNA2 as respective crossover strands (see FIG. 3A and Examples for tile design and strand composition). We surmised that upon annealing (95-4° C., over 2 h) the constituent strands for these tiles with the DNA1-MMPpep-DNA2 conjugate both tiles would form simultaneously, with the full hybridization of DNA1 and DNA2 into the corresponding tiles breaking the DPD hairpin. Addition of MMP8 to the DX tile dimer should cleave MMPpep, and restore the two separate DNA nanostructures.
We probed this system by native (non-denaturing) PAGE, FIG. 3A. Lanes 1 and 2 show the annealed DX tile with DNA2 incorporated, and the second DX tile with DNA1-MMPpep-(prA) respectively. […]
Polyacrylamide gel electrophoresis (PAGE). […] DX tiles were analyzed using 6% native polyacrylamide gels, with 1×TAE containing 12.5 mM Mg^2+ as a running buffer, at 200 V for 160 min.

integrin = conditions: cyclic conformation approximating presentation on fibronectin; cited from earlier work

| Substance | cleavage of DX tile dimer to individual tiles after addition of MMP8 [1] | increase in binding efficiency on constraining in a cyclic conformation (integrin) |
| --- | --- | --- |
| (prA)GQGIPQGWGG(azK) ({prA″}-GQGIPQGWGG[Lys(N3)]-NH2; not fully specified; printed as (prA)GQGIPQGWGG(azK); reading uncertain) [MMPpep-scram, tested as linker of a tile dimer] | did not show any cleavage to individual tiles | – |
| RGDS | – | several orders of magnitude |
